In patent US20230349919A1:
Changes are numbered by the printed parent chain.

B1: Table 1 Line # 38 antibody (SP_B_cell) (antibody, human IgG4, V domains shown)
VH: EVHLVESGGGLAKPGGSLRLSCTASGFTFSTYNLNWVRQAPGKGLEWVSYISRSSVYIYYADSLKGRFTISRDDAKNSLYLQMNSLRAEDTAVYYCVRDDYGDYVPLDYWGQGTLVTVSS
VL: AIQMTQSPSSLSASVGDRITITCRASQGISNDLGWYQQKPGKAPKLLIFAASSLQSGVLSRFSGSGSGTDFTLTISSLQPEDVATYFCLQDYNFPRTFGQGTKVEIK
B2: Table 1 Line # 39 antibody (SP_B_cell) (antibody, human IgG4, V domains shown)
VH: EVQLVESGGDLVQPGRSLRLSCAASGFTFDDYAMYWVRQTPGKGLEWVSRITWNSGSIGYAGSVQGRFTISRDNAKNSLYLQMNSLRAEDSALYYCAKDIGGSYLGFDYWGQGTLVTVSS
VL: EIVLTQSPGTLSLSPGERVTLSCRASQSVSATYFAWYQQKPGQPPRLLIYGASNRATGIPDRFSGSGSGTDFTLTISRLEPEDFAVYYCQQNGNSYTFGQGTILEIK
B3: Table 1 Line # 47 antibody (SP_Plasma_cell) (antibody, human IgG4, V domains shown)
VH: ELQLVESGGGLVQPGRSLRLSCAASGFPFDAYAMHWVRQAPGKGLQWVSGIRWNGGNIDYVDSVKGRFTISRDNAKNSLYLQLNSLRSEDTALYYCAKDLGGSHYALDVWGQGTMVTVSS
VL: DIQMTQSPSSLSASVGARVTITCRASQSINNDLNWYQQKPGKAPKFLIYAASSLQSGVPSRFSGRGSGTDFTLTIRSLQPEDFAVYYCQQTYSSPFTFGPGTKVDLK
B4: Table 1 Line # 48 antibody (SP_Plasma_cell) (antibody, human IgG4, V domains shown)
VH: EVQLVESGGVLVQPGRSLRLSCAASGFTFDDFAMHWVRQAPGKGLEWVSGISWNGNSIGYADSVKGRFTISRDNAKNSLYLQMNSLRTEDTALYYCAKDTSSWSYYYGMDVWGQGTTVTVSS
VL: DIQMTQSPSSLSASVGDRVTITCRASQGIRNDLGWYQQKPGKAPKRLIYAASNLQSGVPSRFSGSGSGTEFTFTISSLQPEDFATYYCLQHNSYPYTFGQGTKLEIK
B5: Table 1 Line # 50 antibody (SP_Plasma_cell) (antibody, human IgG4, V domains shown)
VH: EVKLLESGGGLVQPGGSLRLSCAASGFSFSTYAMNWVRQAPGKGLEWVSAITGSGGSTYYADSVKGRFTMSRDNSKNTLYLQMNSLRAEDTAVYYCAKDRRGAFDIGGQGTMVTVSS
VL: DIQMTQSPSSVSASVGDRVTITCRASQGISSWLAWYQQKPGKVPKFLIYAASNLQSGVPSRFSGSGSGTDFTLTISSLQPEDFATYYCQQANSFPFTFGPGTKVDIK
B6: Table 1 Line # 22 antibody (SP_B_cell) (antibody, human IgG4, V domains shown)
VH: B2 VH with D10G, T40I, R50G, A88V, S91T, T114A
VL: B2 VL with I2T, A31S, F34L, P44A, N92Y, N94S, I103K
B7: Table 1 Line # 30 antibody (SP_B_cell) (antibody, human IgG4, V domains shown)
VH: EVQLVESGGGMVQPGRSLRLSCAASGFTFDDYAMHWVRQAPGKGLEWVSGIKWNGGNIGYADSVKDRFTISRDNAKNSLFLQMNSLRAEDAALYSCAKDIGGSQYALDVWGQGTTVTVSS
VL: DIQMTQSPSSLSASVGDRVTITCRASLSIGSYLNWYQKKPGKAPKLLIFVASSLQGGVSSRFSGSGSGTDFTLTISSLQPEDFATYYCQQTYSTPFTFGPGTKVDIK
B8: Table 1 Line # 33 antibody (SP_B_cell) (antibody, human IgG4, V domains shown)
VH: EVQLLESGGGLVQPGGSLRLSCAASRFTFSNYEMNWVRQAPGKGLEWLSYINTSGTTIYYADSVKGRFTISRDNAKNSLYLQMNSLRAEDTAVYYCARVNWNSDAFDIWGQGTMVTVSS
VL: EIVMTQSPATLSVSPGERATLSCRASQIVGSNLAWYHQKPGQAPRLLIYSASTRATGIPARFSGSGSGTEFTLTISSLQSEDFAVYYCQQYNNWPPFTFGPGTKVDIK
B9: Table 1 Line # 35 antibody (SP_B_cell) (antibody, human IgG4, V domains shown)
VH: EVQLVESGGGLVKPGGSLRLSCAASGFTFSSYSMNWVRQAPGKGLEWVSSISSSSSYIYYADSVKGRFTISRDNAKNSLYLQMNSLRAEDTAVYYCARDRSSSPLENWGQGTLVTVSS
VL: B5 VL with V43A, F46L, N53S, F96I, P100Q, K103R, V104L, D105E
B10: Table 1 Line # 37 antibody (SP_B_cell) (antibody, human IgG4, V domains shown)
VH: QVHLVESGGDVVQPGRSLRLSCAASGFTFSYYGMHWVRQAPFKGLEWVAVIWYDGSNKYYADSVKGRFTITRDNSKNTVYLQMNSLRAEDTAIYYCARWGGFGVTGTHLDYWGQGTLVTVSS
VL: DIQLTQSPSLLSASVGDRVTITCWASQDIAGHFAWYQQKPGTVPKLLIYAISTLDSGVPSRFSGSRSGTEFTLTISSLQPEDFATYYCQHLNSYPYTFGQGTKLEIK
B11: Table 1 Line # 40 antibody (SP_Plasma_cell) (antibody, human IgG4, V domains shown)
VH: QVQLQESGPGLVKPSETLSLTCTISGGSISTYYWSWIRQPPGKGLEWIGYIYYSGNTNYNPSLKSRVTISVDTSKNQFSLKLNSVTAADTAVYYCARHRGSYVYGMDVWGQGTTVTVSS
VL: DIQMTQSPSSLSASLVDRVTITCRASQTISSYLNWYQQKPGKAPKLLIYGASILQSGVPSRFSGSGSGTDFTLTISSLQPEDHAVYFCQQSYSSPTFGGGTKVEIK
B12: Table 1 Line # 46 antibody (SP_Plasma_cell) (antibody, human IgG4, V domains shown)
VH: EVQLEASGGDLVQPGRSLRLSCAASGFIFDDFGMHWVRQAPGKGLEWVSGISWNGGHIGYADSVKGRFTISRDNAKNSLYLQMNSLRAEDTALYYCAKEHSSSWYGFFDFWGRGTLVTVSS
VL: DIQMTQSPSSLSASVGDRVTITCRASQGLSNSVAWYQQKPGQIPRLLISAAASLQSGVPSRFSGSGSGTDFTLTISRLQPEDVATYYCQNYNSAPRTFGQGTNVEIK
B13: Table 1 Line # 49 antibody (SP_Plasma_cell) (antibody, human IgG4, V domains shown)
VH: EVHLLESGGGFIQPGGSLRLSCAASGFTFSTYAMNWVRLAPGKGLEWVSTISGSGGFTSYTDSVQGRFTISRDNSKNKLYLQINNLTAEDTAVYYCAKDRRIVGATGFDYWGQGALVTVSS
VL: DIQMTQSPSSLSASAGDRVTITCRASQSISSYLNWYQQKPGKAPKLLIYAASSLQSGVPSRFSGSGSGTDFTLTISSLQPEDSATYYCQQSYGFHTFGQGTRLEIK
B14: Table 1 Line # 53 antibody (SP_Plasma_cell) (antibody, human IgG4, V domains shown)
VH: EIQLVESGGGLVQPGRSLRLSCAASGFTFDDYAMHWVRQAPGKGLEWVSGINWNNGSLGYADSVKGRFTISRDNAKNSLYLQMNSLRTEDTALYYCVKDTGSWASYYGMDVWGHGTTVTVSS
VL: B4 VL with V15I, N53S, F73L
B15: Table 1 Line # 54 antibody (SP_Plasma_cell) (antibody, human IgG4, V domains shown)
VH: QVQLVQSGAEVKKPGASVKVSCKASGYTFTNYGISWVRQAPGQGLEWMGWISVYNGNTNYAQKLQGRVTMTTDTSTSTAYMEVRSLRSDDTAVYYCARGVNWNYVFDYWGQGTLVTVSS
VL: B4 VL with A50V, A51V, N53S, F73L, Y96W, L104V
B16: Table 1 Line # 1 antibody (BM_Plasma_cell) (antibody, human IgG4, V domains shown)
VH: EVQLVESGGGLVKPGGSLRLSCAASGFTFSSYSMNWVRQAPGKGLEWVSSISSSSSYIYYADSVKGRFTISRDNAKNSLYLQMNSLRAEDTAVYYCASLAARPFWGQGTMVTVSS
VL: B5 VL with K42R, V43A, F46L, N53S, F96L, P100G, D105E
B17: Table 1 Line # 3 antibody (BM_Plasma_cell) (antibody, human IgG4, V domains shown)
VH: EVQLVESGGGLVQPGRSLRLSCAASGFTFDDYAMHWVRQVTGKGLEWVSGINWNSGNIGYADSVRGRFTISRDNAKNSLYLQMNSLRAEDTALYYCAKDSGSSWYGYFDLWGRGTLVTVSS
VL: DIQMTQSPSTLSASVGDRVTITCRASQSISRWLAWYQQKPGKAPKFLIYKASSLESGVPSRFSGSGSGTEFTLTISSLQPDDFATYYCQQYNSDSRTFGQGTKVEIK
B18: Table 1 Line # 11 antibody (BM_Plasma_cell) (antibody, human IgG4, V domains shown)
VH: EVQLVESGGGLVQPGRSLRLSCAASGFTFDDYAMHWVRQAPGKGLEWVSGISWNSGSIGYADSVKGRFTISRDNAKNSLYLQMNSLRAEDTALYYCARDYSSAWYGYFDSWGQGTLVTVSS
VL: DIQMTQSPSSLSASVGDRVTITCRASQGINNYLAWYQQKPGKIPKLLIFTASTLQSGVPSRFSGSGSGTDFTLTINSLQPEDVATYYCQNYNSVPRTFGQGTKVEIK
B19: Table 1 Line # 12 antibody (BM_Plasma_cell) (antibody, human IgG4, V domains shown)
VH: QVQLVESGGGVVQPGRSLRLSCAASGFTFSSYGMHWVRQAPGKGLEWVSVISYDGSNKYYADSVKGRFTISRDNSKNTLFLQVNSLRAEDTAVYYCAKEGRTGFDYWGQGTLVTVSS
VL: B18 VL with S26R, N30S, Y36F, I43V, F49Y, T50A, N76S, N90K, V94A, R96W
B20: Table 1 Line # 15 antibody (BM_Plasma_cell) (antibody, human IgG4, V domains shown)
VH: B18 VH with G10A, T28A, S55G, G56A, I58L, V64L, A88S, Y94F, S110Y
VL: B18 VL with G28D, N30S, I43V, F49Y, T50A, N76S, E81Q
B21: Table 1 Line # 18 antibody (BM_Plasma_cell) (antibody, human IgG4, V domains shown)
VH: EVQLVQSGAEVKKPGESLKISCKGSGYRFTTNWIGWVRQMPGKGLEWMGIIYPDDSDTRYSPSFQGQVTISADKSINTAYLHWNSLKSSDTAIYYCARGANWFDPWGQGTLVTVSS
VL: EIVLTQSPGILSLSPGKRATLSCRASQSVSSNFLAWYQQKPGQAPRLLIYGTSSRANGIPDRFSGSGSGTDFTLTISGLEPEDFAEYYCQQYGSSVTFGQGTRLEIK

These binders were tested against human IL-4Rα (hIL-4Rα) monomeric protein (human) (UniProt P24394) (assay: barcoded-antigen count on source cell (scRNA-seq)).

Binder | REGN560.L15 ab raw
B1 | 6050 counts
B2 | 3560 counts
B3 | 1520 counts
B4 | 1240 counts
B5 | 924 counts
B6 | 14000 counts
B7 | 9180 counts
B8 | 7340 counts

Each binder was assayed against human IL-6Rα (hIL-6Rα), barcoded negative control antigen (human) (UniProt P08887) (assay: barcoded-antigen count on source cell (scRNA-seq)).
Chain of human IL-6Rα (hIL-6Rα), barcoded negative control antigen (human) (P08887 20-358 limits assumed): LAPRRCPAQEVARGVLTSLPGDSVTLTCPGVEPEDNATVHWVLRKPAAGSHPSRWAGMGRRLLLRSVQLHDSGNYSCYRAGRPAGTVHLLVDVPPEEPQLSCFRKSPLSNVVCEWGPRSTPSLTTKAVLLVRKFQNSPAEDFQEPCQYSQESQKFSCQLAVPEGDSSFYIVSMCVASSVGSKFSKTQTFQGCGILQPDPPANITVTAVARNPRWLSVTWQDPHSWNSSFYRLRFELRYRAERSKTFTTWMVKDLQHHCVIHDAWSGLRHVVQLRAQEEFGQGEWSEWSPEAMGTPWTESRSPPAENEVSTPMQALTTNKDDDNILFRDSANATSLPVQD

Binder | REGN78.L15 ab raw
B9 | 33 counts
B10 | 60 counts
B1 | 66 counts
B2 | 17 counts
B11 | 1 counts
B12 | 2 counts
B3 | 6 counts
B4 | 17 counts
B13 | 2 counts
B14 | 5 counts
B15 | 26 counts
B16 | 271 counts
B17 | 236 counts
B18 | 115 counts
B19 | 348 counts
B20 | 158 counts
B21 | 55 counts
B6 | 5 counts
B7 | 179 counts
B8 | 106 counts
